Patent US7723070B2, “Overexpression of aminoacyl-tRNA synthetases for efficient production of engineered proteins containing amino acid analogues” (California Institute of Technology, priority 2000, dated 2010)

Tested on: B834(DE3) or CAG18491 hosts with pQE15/pREP4 or pQE15-MRS/pREP4
Test: Translational activity: mDHFR synthesis, statements covering several bacterial hosts (with pQE15 or pQE15-MRS)
Format: cell-based, E. coli
Details: each of CAG18491/pQE15/pREP4 and CAG18491/pQE15-MRS/pREP4
Procedure: Methionine analogues were synthesized via alkylation of diethylacetamidomalonate, as previously described (As described in Example I, infra; J. C. M. van Hest, D. A. Tirrell, FEBS Lett. 1998, 428, 68-70). Cultures of B834(DE3)/pQE15-MRS/pREP4 or B834(DE3)/pQE15/pREP4 or CAG18491/pQE15-MRS/pREP4 or CAG18491/pQE15/pREP4 in M9AA media were grown to an optical density of 0.90, and the cells were sedimented by centrifugation. The M9AA medium was prepared by supplementing sterile M9 medium with […] of each of the amino acids, 1 mM MgSO4, 0.2 wt % glucose, 1 mg/ml thiamine chloride, and […] calcium chloride. The antibiotics ampicillin and kanamycin were added at concentrations of 200 mg/l and 35 mg/l, respectively.
Cells were washed three times with M9 salts and resuspended to an optical density of 0.90 in M9 test media containing 19 amino acids plus 1) neither methionine nor analogue (negative control); 2) methionine (60 mg/liter, positive control); or 3) an analogue of interest (60 mg/liter). To test the effect of increasing the level of supplementation of the analogues, a set of experiments was also conducted in which the medium was supplemented with 500 mg/liter of methionine or the amino acid analogue. Expression of mDHFR was induced by addition of 0.4 mM isopropyl β-D-thiogalactopyranoside (IPTG), and protein synthesis was monitored after 4.5 hours.

B1: mDHFR: mouse dihydrofolate reductase with N-terminal hexahistidine sequence, test protein (protein, UniProt P00375 2-187, looked up)
Dihydrofolate reductase: VRPLNCIVAVSQNMGIGKNGDLPWPPLRNEFKYFQRMTTTSSVEGKQNLVIMGRKTWFSIPEKNRPLKDRINIVLSRELKEPPRGAHFLAKSLDDALRLIEQPELASKVDMVWIVGGSSVYQEAMNQPGHLRLFVTRIMQEFESDTFFPEIDLGKYKLLPEYPGVLSEVQEEKGIKYKFEVYEKKD
modifications: N-terminal His6 tag
- yield of mDHFR in M9AA medium: approximately 30 mg
